In patent US20050221292A1:
Substitutions are numbered along the chain they refer to.

Tests used:
[1] = molecular target: T1, F(MMP#2): Sendai virus F protein with the activation site modified to PLG↓MTS (UniProt P04855)
T1 sequence: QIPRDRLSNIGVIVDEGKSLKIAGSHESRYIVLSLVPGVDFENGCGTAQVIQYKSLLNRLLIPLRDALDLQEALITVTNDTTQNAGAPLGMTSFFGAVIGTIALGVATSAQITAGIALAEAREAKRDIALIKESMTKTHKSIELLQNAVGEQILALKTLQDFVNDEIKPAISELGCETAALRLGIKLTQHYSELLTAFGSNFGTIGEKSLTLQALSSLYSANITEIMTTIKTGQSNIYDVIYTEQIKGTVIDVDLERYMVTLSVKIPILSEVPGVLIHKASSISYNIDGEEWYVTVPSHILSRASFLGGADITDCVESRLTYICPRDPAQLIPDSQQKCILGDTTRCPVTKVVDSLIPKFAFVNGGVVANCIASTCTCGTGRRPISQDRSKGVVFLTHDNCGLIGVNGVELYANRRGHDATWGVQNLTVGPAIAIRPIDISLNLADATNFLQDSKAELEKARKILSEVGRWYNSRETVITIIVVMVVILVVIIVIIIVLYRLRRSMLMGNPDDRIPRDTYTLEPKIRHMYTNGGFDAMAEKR

[2] = molecular target: T2, F(uPA): Sendai virus F protein with the activation site modified to VGR (UniProt P04855)
T2 sequence: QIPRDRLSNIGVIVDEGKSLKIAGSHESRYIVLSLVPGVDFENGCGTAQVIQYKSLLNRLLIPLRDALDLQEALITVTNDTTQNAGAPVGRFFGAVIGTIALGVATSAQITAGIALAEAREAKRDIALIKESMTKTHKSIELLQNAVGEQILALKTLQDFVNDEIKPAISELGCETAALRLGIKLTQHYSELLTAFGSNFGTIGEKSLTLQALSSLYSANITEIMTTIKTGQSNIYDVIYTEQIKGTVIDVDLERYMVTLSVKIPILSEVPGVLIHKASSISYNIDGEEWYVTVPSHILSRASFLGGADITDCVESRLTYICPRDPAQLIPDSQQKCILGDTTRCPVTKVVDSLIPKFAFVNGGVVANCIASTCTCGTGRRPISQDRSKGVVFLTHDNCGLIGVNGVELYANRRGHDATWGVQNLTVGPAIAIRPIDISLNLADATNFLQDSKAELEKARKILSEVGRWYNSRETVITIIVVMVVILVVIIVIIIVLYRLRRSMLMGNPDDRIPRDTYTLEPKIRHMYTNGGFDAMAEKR

[3] = molecular target: T3, Sendai virus (SeV) F protein, wild type (unmodified F) (UniProt P04855)
T3 sequence: T2 sequence with V89Q, G90S

[4] = molecular target: T4, Fct14(MMP#6)/Linker/HN chimeric protein (UniProt P04855)
T4 sequence: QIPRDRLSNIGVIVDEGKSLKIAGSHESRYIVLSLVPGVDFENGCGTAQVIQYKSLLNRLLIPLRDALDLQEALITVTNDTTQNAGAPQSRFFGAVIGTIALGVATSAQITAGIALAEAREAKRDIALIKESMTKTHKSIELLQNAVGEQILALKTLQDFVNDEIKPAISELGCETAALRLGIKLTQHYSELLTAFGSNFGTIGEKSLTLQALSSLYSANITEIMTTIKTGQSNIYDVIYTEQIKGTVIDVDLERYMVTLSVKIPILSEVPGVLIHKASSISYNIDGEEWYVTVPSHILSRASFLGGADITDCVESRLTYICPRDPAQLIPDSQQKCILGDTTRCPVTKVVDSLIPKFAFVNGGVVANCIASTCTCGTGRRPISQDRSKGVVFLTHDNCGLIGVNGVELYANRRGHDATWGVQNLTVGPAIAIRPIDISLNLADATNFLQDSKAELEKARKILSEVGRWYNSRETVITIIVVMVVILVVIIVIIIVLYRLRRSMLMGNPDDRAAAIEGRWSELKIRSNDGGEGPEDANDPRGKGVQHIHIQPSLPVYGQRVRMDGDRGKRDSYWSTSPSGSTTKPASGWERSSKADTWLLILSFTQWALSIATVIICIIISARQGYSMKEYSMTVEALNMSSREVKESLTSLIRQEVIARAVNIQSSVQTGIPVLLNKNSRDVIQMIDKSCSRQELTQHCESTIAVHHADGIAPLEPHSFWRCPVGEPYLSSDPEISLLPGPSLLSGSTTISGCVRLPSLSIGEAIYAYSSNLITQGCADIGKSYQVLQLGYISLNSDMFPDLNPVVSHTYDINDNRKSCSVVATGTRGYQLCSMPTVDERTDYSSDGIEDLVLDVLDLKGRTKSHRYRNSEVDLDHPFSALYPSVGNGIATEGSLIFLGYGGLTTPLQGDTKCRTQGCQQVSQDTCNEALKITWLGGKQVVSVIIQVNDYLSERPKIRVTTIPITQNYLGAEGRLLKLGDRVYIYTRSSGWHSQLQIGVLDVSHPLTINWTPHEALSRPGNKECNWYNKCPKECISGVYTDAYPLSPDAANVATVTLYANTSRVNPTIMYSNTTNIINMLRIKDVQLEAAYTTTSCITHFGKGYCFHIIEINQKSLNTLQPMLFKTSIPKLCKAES

Question: How did the “cleavage of F0 to F1 (Western blotting of protease-treated viral particles)” value [1] turn out when active MMP-9 (COSMO BIO) was run?
Answer: MMP-9 cleaved that of the M-deficient SeV vector having the MMP#2 sequence inserted into the F protein

Question: With trypsin (Gibco-BRL) as the substance, how does the “cleavage of F0 to F1 (Western blotting; data not shown)” value [2] read?
Answer: for the M-deficient SeV vector into which uPA sequence is inserted, cleavage of F1 was observed in the presence of trypsin when the degradation time was prolonged to four hours

Question: And the “cleavage of F0 to F1 (Western blotting of protease-treated viral particles)” value [3]?
Answer: trypsin cleaved the F protein of the F-unmodified M-deficient SeV vector

Question: For “type IV collagenase (Clostridium histolyticum) (ICN)”, which “fusogenicity (syncytium formation) relative to the MMP#2 chimera, against concentration of added collagenase” value [4] is on record?
Answer: MMP#6 was found to have two to three times higher fusogenicity compared to MMP#2

Question: With “uPA (urokinase-type plasminogen activator)” as the substance, how does the “cleavage of F0 to F1 (Western blotting of protease-treated viral particles)” value [2] read?
Answer: uPA cleaved that of the M-deficient SeV vector having the uPA sequence inserted into the F protein

Question: And the “syncytia formation in LLC-MK2 (exogenous protease)” value [2]?
Answer: upon further modification of the F protein, showed the formation of syncytia, multinuclear cells, in the presence of uPA
